US20230357348A1 (AstraZeneca / MedImmune, published 2023)
Starred links: 1 amine or outer side, 2 acyl side, 3 side chain; linkers in the order of their positions; H or OH if unused. Non-standard residues stand in square brackets, D forms with d. Groups on a side chain read outwards from the residue. No end group written: not given here. *: point of attachment. γGlu = O=C(O)[C@H](CCC(=O)[*:2])N[*:1]; Stearoyl = CCCCCCCCCCCCCCCCCC(=O)*; Palmitoyl = CCCCCCCCCCCCCCCC(=O)*; αMeF = C[C@](N)(Cc1ccccc1)C(=O)O; (PEG)2 = polyethylene glycol 2; AEEA = NCCOCCOCC(=O)O; Aib = CC(C)(N)C(=O)O

What was measured:
[1] = molecular target: human glucagon receptor (hGCGR) (human, UniProt P47871 26-477); experiment: cell-based or functional assay
Chain of human glucagon receptor (hGCGR) (P47871 26-477): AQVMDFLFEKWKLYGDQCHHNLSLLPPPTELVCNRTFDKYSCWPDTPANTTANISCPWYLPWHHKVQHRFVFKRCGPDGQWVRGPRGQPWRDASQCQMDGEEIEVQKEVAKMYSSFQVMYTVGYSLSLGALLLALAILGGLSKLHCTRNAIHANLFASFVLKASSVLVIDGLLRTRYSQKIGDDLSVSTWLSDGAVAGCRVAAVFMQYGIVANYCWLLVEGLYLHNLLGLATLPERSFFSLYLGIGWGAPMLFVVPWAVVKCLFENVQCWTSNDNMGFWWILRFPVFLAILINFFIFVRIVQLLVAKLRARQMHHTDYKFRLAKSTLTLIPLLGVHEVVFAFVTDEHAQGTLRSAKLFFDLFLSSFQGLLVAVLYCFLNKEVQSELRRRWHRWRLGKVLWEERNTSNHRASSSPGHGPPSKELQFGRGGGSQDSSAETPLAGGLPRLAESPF

[2] = molecular target: human GLP-1 receptor (hGLP-1R) (human, UniProt P43220 24-463); experiment: cell-based or functional assay

Binder	hGluc-R EC50 (pM); cAMP production [1] [pM]	hGLP-1R EC50 (pM); cAMP production [2] [pM]
H[Aib]QGS[αMeF]TSDVSKK([(PEG)2-(PEG)2-γGlu-Palmitoyl])LDSRAAQD[αMeF]VEWIANT-NH2 [Peptide 402 (of Table 10, position 13)]	18.1	1.04
HSQGS[αMeF]TSDVSKK([AEEA-AEEA-γGlu-γGlu-Stearoyl])LDSQAAQD[αMeF]VE[Aib]LANT-NH2 [Peptide 404 (of Table 10, position 13)]	21.8	5.65
